# Measured values taken from patent US20230406950A1 (LYVGEN BIOPHARMA, published 2023).
# B1: Ly513 (bispecific antibody, human IgG2, kappa)
# heavy: QVTLKESGPALVKPTQTLTLTCTFSGFSLSTSGTCVSWIRQPPGKALEWLATICWEDSKGYNPSLKSRLTISKDTSKNQAVLTMTNMDPVDTATYYCARREDSGYFWFPYWGQGTLVTVSSASTKGPSVFPLAPCSRSTSESTAALGCLVKDYFPEPVTVSWNSGALTSGVHTFPAVLQSSGLYSLSSVVTVPSSNFGTQTYTCNVDHKPSNTKVDKTVERKCCVECPPCPAPPVAPSVFLFPPKPKDTLMISRTPEVTCVVVDVSHEDPEVQFNWYVDGVEVHNAKTKPREEQFNSTFRVVSVLTVVHQDWLNGKEYKCKVSNKGLPAPIEKTISKTKGQPREPQVYTLPPSREEMTKNQVSLTCLVKGFYPSDIAVEWESNGQPENNYKTTPPMLDSDGSFFLYSKLTVDKSRWQQGNVFSCSVMHEALHNHYTQKSLSLSPGK
# light: NIQMTQSPSSLSASVGDRVTITCKAGQNVNNYLAWYQQKPGKAPKVLIFNANSLQTGVPSRFSGSGSGTDFTLTISSLQPEDFATYYCQQYNSWPTFGGGTKVEIKRTVAAPSVFIFPPSDEQLKSGTASVVCLLNNFYPREAKVQWKVDNALQSGNSQESVTEQDSKDSTYSLSSTLTLSKADYEKHKVYACEVTHQGLSSPVTKSFNRGECGGGGSGGGGSGGGGSGGGGSQVQLVQSGAEVKKPGASVKVSCKASGYTFAGFEMHWVRQAPGQGLEWMGAIDPKTGGTDYNQKFKDRVTMTRDTSISTAYMELSRLRSDDTAVYYCARDLGYFDVWGQGTLVTVSSGGGGSGGGGSGGGGSGGGGSDIQMTQSPSSLSASVGDRVTITCRASQDIRSNLNWYQQKPGGAVKLLIYYTSRLHSGVPSRFSGSGSGTDYTLTISSLQPEDFATYFCQQSEKLPRTFGGGTKVEIR
# notes: Anti-PD-1/CD137: Ly516 heavy chain; Ly516 light chain fused to Ly1630 scFv (VH-VL)
# B2: Ly458 (bispecific antibody, human IgG1, kappa)
# heavy: QVTLKESGPALVKPTQTLTLTCTFSGFSLSTSGTCVSWIRQPPGKALEWLATICWEDSKGYNPSLKSRLTISKDTSKNQAVLTMTNMDPVDTATYYCARREDSGYFWFPYWGQGTLVTVSSASTKGPSVFPLAPSSKSTSGGTAALGCLVKDYFPEPVTVSWNSGALTSGVHTFPAVLQSSGLYSLSSVVTVPSSSLGTQTYICNVNHKPSNTKVDKKVEPKSCDKTHTCPPCPAPELLGPSVFLFPPKPKDTLMISRTPEVTCVVVDVSHEDPEVKFNWYVDGVEVHNAKTKPREEQYNSTYRVVSVLTVLHQDWLNGKEYKCKVSNKALPAPIEKTISKAKGQPREPQVYTLPPSREEMTKNQVSLTCLVKGFYPSDIAVEWESNGQPENNYKTTPPVLDSDGSFFLYSKLTVDKSRWQQGNVFSCSVMHEALHNHYTQKSLSLSPGK
# light: NIQMTQSPSSLSASVGDRVTITCKAGQNVNNYLAWYQQKPGKAPKVLIFNANSLQTGVPSRFSGSGSGTDFTLTISSLQPEDFATYYCQQYNSWPTFGGGTKVEIKRTVAAPSVFIFPPSDEQLKSGTASVVCLLNNFYPREAKVQWKVDNALQSGNSQESVTEQDSKDSTYSLSSTLTLSKADYEKHKVYACEVTHQGLSSPVTKSFNRGECGGGGSGGGGSGGGGSGGGGSDIQMTQSPSSLSASVGDRVTITCRASQDIRSNLNWYQQKPGGAVKLLIYYTSRLHSGVPSRFSGSGSGTDYTLTISSLQPEDFATYFCQQSEKLPRTFGGGTKVEIRGGGGSGGGGSGGGGSGGGGSQVQLVQSGAEVKKPGASVKVSCKASGYTFAGFEMHWVRQAPGQGLEWMGAIDPKTGGTDYNQKFKDRVTMTRDTSISTAYMELSRLRSDDTAVYYCARDLGYFDVWGQGTLVTVSS
# notes: Anti-PD-1/CD137: Ly516 heavy chain; Ly516 light chain fused to Ly1630 scFv (VL-VH)
# B3: Ly511 (bispecific antibody, human IgG2, kappa)
# heavy: QVTLKESGPALVKPTQTLTLTCTFSGFSLSTSGTCVSWIRQPPGKALEWLATICWEDSKGYNPSLKSRLTISKDTSKNQAVLTMTNMDPVDTATYYCARREDSGYFWFPYWGQGTLVTVSSASTKGPSVFPLAPCSRSTSESTAALGCLVKDYFPEPVTVSWNSGALTSGVHTFPAVLQSSGLYSLSSVVTVPSSNFGTQTYTCNVDHKPSNTKVDKTVERKCCVECPPCPAPPVAPSVFLFPPKPKDTLMISRTPEVTCVVVDVSHEDPEVQFNWYVDGVEVHNAKTKPREEQFNSTFRVVSVLTVVHQDWLNGKEYKCKVSNKGLPAPIEKTISKTKGQPREPQVYTLPPSREEMTKNQVSLTCLVKGFYPSDIAVEWESNGQPENNYKTTPPMLDSDGSFFLYSKLTVDKSRWQQGNVFSCSVMHEALHNHYTQKSLSLSPGGGGGSGGGGSGGGGSGGGGSQVQLVQSGAEVKKPGASVKVSCKASGYTFAGFEMHWVRQAPGQGLEWMGAIDPKTGGTDYNQKFKDRVTMTRDTSISTAYMELSRLRSDDTAVYYCARDLGYFDVWGQGTLVTVSSGGGGSGGGGSGGGGSGGGGSDIQMTQSPSSLSASVGDRVTITCRASQDIRSNLNWYQQKPGGAVKLLIYYTSRLHSGVPSRFSGSGSGTDYTLTISSLQPEDFATYFCQQSEKLPRTFGGGTKVEIR
# light: NIQMTQSPSSLSASVGDRVTITCKAGQNVNNYLAWYQQKPGKAPKVLIFNANSLQTGVPSRFSGSGSGTDFTLTISSLQPEDFATYYCQQYNSWPTFGGGTKVEIKRTVAAPSVFIFPPSDEQLKSGTASVVCLLNNFYPREAKVQWKVDNALQSGNSQESVTEQDSKDSTYSLSSTLTLSKADYEKHKVYACEVTHQGLSSPVTKSFNRGEC
# notes: Anti-PD-1/CD137: Ly516 heavy chain fused to Ly1630 scFv (VH-VL); Ly516 light chain
# B4: Ly457 (bispecific antibody, human IgG1, kappa)
# heavy: QVTLKESGPALVKPTQTLTLTCTFSGFSLSTSGTCVSWIRQPPGKALEWLATICWEDSKGYNPSLKSRLTISKDTSKNQAVLTMTNMDPVDTATYYCARREDSGYFWFPYWGQGTLVTVSSASTKGPSVFPLAPSSKSTSGGTAALGCLVKDYFPEPVTVSWNSGALTSGVHTFPAVLQSSGLYSLSSVVTVPSSSLGTQTYICNVNHKPSNTKVDKKVEPKSCDKTHTCPPCPAPELLGPSVFLFPPKPKDTLMISRTPEVTCVVVDVSHEDPEVKFNWYVDGVEVHNAKTKPREEQYNSTYRVVSVLTVLHQDWLNGKEYKCKVSNKALPAPIEKTISKAKGQPREPQVYTLPPSREEMTKNQVSLTCLVKGFYPSDIAVEWESNGQPENNYKTTPPVLDSDGSFFLYSKLTVDKSRWQQGNVFSCSVMHEALHNHYTQKSLSLSPGGGGGSGGGGSGGGGSGGGGSQVQLVQSGAEVKKPGASVKVSCKASGYTFAGFEMHWVRQAPGQGLEWMGAIDPKTGGTDYNQKFKDRVTMTRDTSISTAYMELSRLRSDDTAVYYCARDLGYFDVWGQGTLVTVSSGGGGSGGGGSGGGGSGGGGSDIQMTQSPSSLSASVGDRVTITCRASQDIRSNLNWYQQKPGGAVKLLIYYTSRLHSGVPSRFSGSGSGTDYTLTISSLQPEDFATYFCQQSEKLPRTFGGGTKVEIR
# light: B3 light
# notes: as for B3
# Biological target: T1, human CD137 expressed on cells (human, UniProt Q07011 24-255)
# T1 construct: whole, on cells; also called 4-1BB; TNFRSF9
# T1 sequence (Q07011 24-255): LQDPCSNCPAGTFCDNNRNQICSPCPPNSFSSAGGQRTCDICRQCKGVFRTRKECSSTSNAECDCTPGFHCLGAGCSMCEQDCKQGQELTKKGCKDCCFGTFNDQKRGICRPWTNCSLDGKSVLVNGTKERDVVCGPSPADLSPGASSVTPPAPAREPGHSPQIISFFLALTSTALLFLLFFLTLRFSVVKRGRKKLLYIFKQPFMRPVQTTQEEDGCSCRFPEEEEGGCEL
# Assay: flow cytometry (FACS), MFI, CHO cells expressing human CD137
# Experimental: (§1) Exemplary anti-PD-1/CD137 bi-specific antibodies were analyzed by FACS for their binding properties to human PD-1 and/or human CD137 expressed on CHO cells. Briefly, cultured cells were harvested, counted and cell viability was evaluated using the Trypan Blue exclusion method. Viable cells were then adjusted to 2×10⁶ cells per mL in PBS containing 2% BSA. 100 μL of this cell suspension were further aliquoted per well into a V-bottom 96-well plate. […] After incubation for 2 hours at 4° C., cells were centrifuged (3 min, 1000× g), washed with 250 μL/well BSA-containing FACS Stain Buffer, resuspended and incubated for an additional 1 hour at 4° C. with 100 μL/well fluorochrome-conjugated anti-IgG antibody for detection of the bisepecific antibody. Cells were then washed with 250 μL/well BSA-containing FACS Stain Buffer, resuspended in 100 μL/well FACS Stain Buffer, acquired and analyzed using a FACS machine. Binding of the bispecific antibodies to human PD-1 or human CD137 expressing CHO cells were evaluated and the mean fluorescence intensity is plotted in histograms or dot plots.
row,Binder,EC50 (read off the curve) [µg/mL]
1,B1,~0.2
2,B2,~0.2
3,B3,~0.2
4,B4,~0.2

# Biological target: T2, human CD137 ECD protein (His tag) (human, UniProt Q07011 24-186)
# T2 construct: extracellular domain; also called recombinant human CD137; not shown: His tag
# Assay: bridging ELISA: human CD137 ECD (His tag) coated, antibody titrated, then human PD-1 ECD (mouse IgG2a Fc tag), HRP anti-mouse IgG2a Fc; A450-A620
# Experimental: Exemplary anti-PD-1/CD137 bi-specific antibodies were analyzed by ELISA for their simultaneous binding to recombinant human PD-1 and human CD137. Briefly, human CD137 ECD protein (His tag) was diluted and coated onto an ELISA plate with a volume of 100 μL/well by incubation at 4° C. overnight. The next day, the plate was blocked with PBST-BSA buffer, then serially diluted samples of anti-PD-1/CD137 bi-specific antibodies were pipetted into appropriate wells at 50 μL/well, and the plate was incubated for 1 hour followed by washing. The extracellular domain (ECD) of human PD-1 protein (mouse IgG2a Fc tag) was added into the plate at 50 μL/well. After 1-hour incubation at room temperature, HRP-conjugated anti-Mouse IgG, Fc G2a specific antibody was added into the plate at 100 μL/well. The plate was incubated for 1 hour at room temperature followed by washing. TMB substrate solution was added at 100 μL/well and the color development was stopped by adding 100 uL/well Stop Solution (2N H₂SO₄). Absorbance at 450 nm and 620 nm was read by Tecan F200 Pro plate reader. GraphPad 7.0, “[Agonist] vs. response—Variable slope (four parameters)” was used to plot the binding data and calculate binding EC50 values.
row,Binder,EC50 (read off the curve) [ng/mL]
1,B1,~30
2,B2,~20
3,B3,~20
4,B4,~20

# Biological target: T3, human PD-1 expressed on cells (human, UniProt Q15116 25-288)
# T3 construct: whole, on cells; also called human PD-1 over-expressed on the CHO cells; Jurkat/NFkB-Luci/PD-1 cells
# T3 sequence (Q15116 25-288): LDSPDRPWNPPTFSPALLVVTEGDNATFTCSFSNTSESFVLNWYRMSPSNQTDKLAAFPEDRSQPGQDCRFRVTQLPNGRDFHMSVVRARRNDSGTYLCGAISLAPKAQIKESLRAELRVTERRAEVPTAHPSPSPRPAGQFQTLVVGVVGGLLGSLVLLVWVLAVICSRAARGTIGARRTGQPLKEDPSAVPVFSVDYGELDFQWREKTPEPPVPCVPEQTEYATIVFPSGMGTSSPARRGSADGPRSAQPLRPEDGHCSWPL
# Assay: flow cytometry (FACS), MFI, CHO cells expressing human PD-1
# Experimental: as §1
row,Binder,EC50 (read off the curve) [µg/mL]
1,B1,~0.1
2,B2,~0.2
3,B3,~0.2
4,B4,~0.2
